Experimental data as given in US20030148956A1 (PROCTER AND GAMBLE, published 2003).
Ends that are not written are not given here.

T1: corticotropin releasing factor 2 receptor
T1 sequence (Q13324 whole entry, species assumed, looked up): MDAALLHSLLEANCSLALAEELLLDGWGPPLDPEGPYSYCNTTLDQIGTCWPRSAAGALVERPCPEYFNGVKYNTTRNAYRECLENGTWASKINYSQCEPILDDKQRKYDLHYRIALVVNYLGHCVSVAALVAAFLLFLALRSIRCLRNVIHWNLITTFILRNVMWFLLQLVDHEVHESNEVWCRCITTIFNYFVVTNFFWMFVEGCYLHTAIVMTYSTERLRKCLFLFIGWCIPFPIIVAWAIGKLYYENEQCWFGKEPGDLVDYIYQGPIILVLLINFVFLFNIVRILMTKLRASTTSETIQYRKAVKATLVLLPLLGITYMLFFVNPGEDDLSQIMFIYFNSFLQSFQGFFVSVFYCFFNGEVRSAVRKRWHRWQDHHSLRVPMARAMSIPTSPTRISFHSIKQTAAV

T2: CRF2R
T2 sequence (Q13324 whole entry, species assumed, looked up): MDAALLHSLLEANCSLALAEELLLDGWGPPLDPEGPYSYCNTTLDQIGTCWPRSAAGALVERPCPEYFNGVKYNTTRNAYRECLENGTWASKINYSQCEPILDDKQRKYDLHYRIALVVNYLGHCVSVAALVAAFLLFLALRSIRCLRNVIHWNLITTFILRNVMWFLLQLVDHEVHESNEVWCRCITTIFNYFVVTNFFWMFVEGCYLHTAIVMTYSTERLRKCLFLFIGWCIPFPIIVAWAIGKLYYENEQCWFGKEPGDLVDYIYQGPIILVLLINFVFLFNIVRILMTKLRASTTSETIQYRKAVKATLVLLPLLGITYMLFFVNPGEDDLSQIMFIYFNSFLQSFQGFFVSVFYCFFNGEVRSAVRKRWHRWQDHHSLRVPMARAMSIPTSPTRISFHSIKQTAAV


Assays:
Test in all cases: cell-based or functional assay
[1] = molecular target: corticotropin releasing factor 1 receptor
[2] = molecular target: T1, corticotropin releasing factor 2 …
[3] = molecular target: CRF1R
[4] = molecular target: T2, CRF2R

Row | Binder | CRF1R EC50 [1] [nM] | CRF1R Emax % [1] [%] | CRF2R EC50 [2] [nM] | CRF2R Emax % [2] [%] | CRF1R EC50 [3] [nM] | CRF1R Emax [3] [%] | CRF2R EC50 [4] [nM] | CRF2R Emax [4] [%]
1 | NDDPPISIDLPLFLLRNMIEMARIENEREQAGLNAKYLAEV-NH2 [SEQ ID NO 257] | 744 | 83.5 | 100 | 72.6 | – | – | – | –
2 | NDDPPISIDLPLHLLRNMIEMARIENEREQAGLNAKYLAEV-NH2 [SEQ ID NO 259] | 820 | 83.6 | 100 | 65 | – | – | – | –
3 | NDDPPISIDLPFQLLRNMIEMARIENEREQAGLNAKYLAEV-NH2 [SEQ ID NO 258] | 1000 | 23.6 | 100 | 49.3 | – | – | – | –
4 | ZGPPISIDLPFQLLRKMIEIEKQEKEKQQATTNRLLLARV (C-terminal amide) [SEQ ID NO 19] | – | – | – | – | 232 | 83 | 7.42 | 75
5 | ZGPPISIDLPFQLLRKMIEIEKQEKEKQQATTNARLLATV (C-terminal amide) [SEQ ID NO 21] | – | – | – | – | 908 | 88 | 8.46 | 96
6 | ZGPPISIDLPFQLLRKMIEIEKQEKEKQQATTNARLLARV (C-terminal amide) [SEQ ID NO 23] | – | – | – | – | 1000 | 82 | 10.2 | 100
7 | ZGPPISIDLPFQLLRKMIEIEKQEKEKQQATTNARLLDTV (C-terminal amide) [SEQ ID NO 20] | – | – | – | – | 906 | 60 | 7.81 | 99
8 | ZGPPISIDLPFQLLRKMIEIEKQEKEKQQATTNARLLDRV (C-terminal amide) [SEQ ID NO 22] | – | – | – | – | 1000 | 64 | 8.33 | 100
9 | ZGPPISIDVPFQLLRKMIEIEKQEKEKQQAANNRLLLDTI (C-terminal amide) [SEQ ID NO 256] | 254 | 100 | 12.6 | 100 | – | – | – | –
10 | ZGPPISIDLPYILLRKMIEIEKQEKEKQQAANNRLLLDTI (C-terminal amide) [SEQ ID NO 204] | – | – | – | – | 32.1 | 74 | 3.6 | 93
11 | ZGPPISIDLPIWLLRKMIEIEKQEKEKQQAANNRLLLDTI (C-terminal amide) [SEQ ID NO 192] | – | – | – | – | 562 | 99 | 66.8 | 97
12 | ZGPPISIDLPFVLLRKMIEIEKQEKEKQQAANNRLLLDTI (C-terminal amide) [SEQ ID NO 190] | – | – | – | – | > 100 | 9 | 39.6 | 31
13 | ZGPPISIDLPLILLRKMIEIEKQEKEKQQAANNRLLLDTI (C-terminal amide) [SEQ ID NO 194] | – | – | – | – | 106 | 94 | 5 | 96
14 | ZGPPISIDLPWQLLRKMIEIEKQEKEKQQAANNRLLLDTI (C-terminal amide) [SEQ ID NO 210] | – | – | – | – | 43.5 | 90 | 10.2 | 97
15 | ZGPPISIDLPLLLLRKMIEIEKQEKEKQQAANNRLLLDTI (C-terminal amide) [SEQ ID NO 188] | – | – | – | – | 162 | 96 | 14.6 | 100
16 | ZGPPISIDLPQHLLRKMIEIEKQEKEKQQAANNRLLLDTI (C-terminal amide) [SEQ ID NO 207] | – | – | – | – | 466 | 88 | 61.4 | 96
17 | ZGPPISIDLPLVLLRKMIEIEKQEKEKQQAANNRLLLDTI (C-terminal amide) [SEQ ID NO 193] | – | – | – | – | 266 | 95 | 10.1 | 97
18 | ZGPPISIDLPITLLRKMIEIEKQEKEKQQAANNRLLLDTI (C-terminal amide) [SEQ ID NO 24] | – | – | – | – | > 1000 | 18 | 43.1 | 100

Row | Binder | CRF1R EC50 [1] [nM] | CRF1R Emax % [1] [%] | CRF2R EC50 [2] [nM] | CRF2R Emax % [2] [%] | CRF1R EC50 [3] [nM] | CRF1R Emax [3] [%] | CRF2R EC50 [4] [nM] | CRF2R Emax [4] [%]
19 | ZGPPISIDLPYTLLRKMIEIEKQEKEKQQAANNRLLLDTI (C-terminal amide) [SEQ ID NO 200] | – | – | – | – | 188 | 99 | 8.8 | 100
20 | ZGPPISIDLPFLLLRKMIEIEKQEKEKQQAANNRLLLDTI (C-terminal amide) [SEQ ID NO 191] | – | – | – | – | 63.7 | 65 | 8.3 | 100
21 | ZGPPISIDLPFILLRKMIEIEKQEKEKQQAANNRLLLDTI (C-terminal amide) [SEQ ID NO 189] | – | – | – | – | 62.2 | 57 | 7 | 96
22 | ZGPPISIDLPHWLLRKMIEIEKQEKEKQQAANNRLLLDTI (C-terminal amide) [SEQ ID NO 186] | – | – | – | – | 323 | 100 | 25.1 | 100
23 | ZGPPISIDLPAHLLRKMIEIEKQEKEKQQAANNRLLLDTI (C-terminal amide) [SEQ ID NO 206] | – | – | – | – | 696 | 97 | 30.5 | 97
24 | ZGPPISIDLPYHLLRKMIEIEKQEKEKQQAANNRLLLDTI (C-terminal amide) [SEQ ID NO 208] | – | – | – | – | 64.9 | 81 | 5.6 | 88
25 | ZGPPISIDLPAQLLRKMIEIEKQEKEKQQAANNRLLLDTI (C-terminal amide) [SEQ ID NO 211] | – | – | – | – | 826 | 37 | 59.5 | 100
26 | ZGPPISIDLPQILLRKMIEIEKQEKEKQQAANNRLLLDTI (C-terminal amide) [SEQ ID NO 199] | – | – | – | – | 706 | 93 | 8.5 | 92
27 | ZGPPISIDLPWFLLRKMIEIEKQEKEKQQAANNRLLLDTI (C-terminal amide) [SEQ ID NO 187] | – | – | – | – | 31.6 | 72 | 10.3 | 100
28 | ZGPPISIDLPYQLLRKMIEIEKQEKEKQQAANNRLLLDTI (C-terminal amide) [SEQ ID NO 202] | – | – | – | – | 404 | 100 | 8.7 | 99
29 | ZGPPISIDLPQLLLRKMIEIEKQEKEKQQAANNRLLLDTI (C-terminal amide) [SEQ ID NO 196] | – | – | – | – | 447 | 96 | 27.7 | 97
30 | ZGPPISIDLPYLLLRKMIEIEKQEKEKQQAANNRLLLDTI (C-terminal amide) [SEQ ID NO 203] | – | – | – | – | 76.2 | 86 | 5.2 | 94
31 | ZGPPISIDLPLFLLRKMIEIEKQEKEKQQAANNRLLLDTI (C-terminal amide) [SEQ ID NO 195] | – | – | – | – | 103 | 93 | 18.8 | –
32 | ZGPPISIDLPYVLLRKMIEIEKQEKEKQQAANNRLLLDTI (C-terminal amide) [SEQ ID NO 201] | – | – | – | – | 99.6 | 80 | 5 | 100
33 | ZGPPISIDLPHHLLRKMIEIEKQEKEKQQAANNRLLLDTI (C-terminal amide) [SEQ ID NO 205] | – | – | – | – | 126 | 88 | 25 | 93
34 | ZGPPISIDLPWHLLRKMIEIEKQEKEKQQAANNRLLLDTI (C-terminal amide) [SEQ ID NO 209] | – | – | – | – | 26.4 | 80 | 7.4 | 93
35 | DNPSLSIDLPFFLLRTLLELARTQSQRERAEQNAIIFASV-NH2 [SEQ ID NO 184] | – | – | – | – | 486 | 77.3 | 3.72 | 96.5
36 | DNPSLSIDLPFHLLRTLLELARTQSQRERAEQNAIIFASV-NH2 [SEQ ID NO 185] | – | – | – | – | 358 | 95.8 | 8.98 | 100
